Assays:
[1] = biological target: mCherry-RZZ (ROD-Zwilch-ZW10 complex, wild type) (UniProt P50748 1-2209; Q9H900 1-591; O43264 1-779); assay: SEC
[2] = biological target: R^EEZZ (RZZ with phosphomimetic ROD T13E-S15E) (UniProt P50748 1-2209; Q9H900 1-591; O43264 1-779, T13E | S15E); assay: pull-down
R^EEZZ (RZZ with phosphomimetic ROD T13E-S15E), sequence (P50748 whole entry T13E/S15E, chain 1 of 3): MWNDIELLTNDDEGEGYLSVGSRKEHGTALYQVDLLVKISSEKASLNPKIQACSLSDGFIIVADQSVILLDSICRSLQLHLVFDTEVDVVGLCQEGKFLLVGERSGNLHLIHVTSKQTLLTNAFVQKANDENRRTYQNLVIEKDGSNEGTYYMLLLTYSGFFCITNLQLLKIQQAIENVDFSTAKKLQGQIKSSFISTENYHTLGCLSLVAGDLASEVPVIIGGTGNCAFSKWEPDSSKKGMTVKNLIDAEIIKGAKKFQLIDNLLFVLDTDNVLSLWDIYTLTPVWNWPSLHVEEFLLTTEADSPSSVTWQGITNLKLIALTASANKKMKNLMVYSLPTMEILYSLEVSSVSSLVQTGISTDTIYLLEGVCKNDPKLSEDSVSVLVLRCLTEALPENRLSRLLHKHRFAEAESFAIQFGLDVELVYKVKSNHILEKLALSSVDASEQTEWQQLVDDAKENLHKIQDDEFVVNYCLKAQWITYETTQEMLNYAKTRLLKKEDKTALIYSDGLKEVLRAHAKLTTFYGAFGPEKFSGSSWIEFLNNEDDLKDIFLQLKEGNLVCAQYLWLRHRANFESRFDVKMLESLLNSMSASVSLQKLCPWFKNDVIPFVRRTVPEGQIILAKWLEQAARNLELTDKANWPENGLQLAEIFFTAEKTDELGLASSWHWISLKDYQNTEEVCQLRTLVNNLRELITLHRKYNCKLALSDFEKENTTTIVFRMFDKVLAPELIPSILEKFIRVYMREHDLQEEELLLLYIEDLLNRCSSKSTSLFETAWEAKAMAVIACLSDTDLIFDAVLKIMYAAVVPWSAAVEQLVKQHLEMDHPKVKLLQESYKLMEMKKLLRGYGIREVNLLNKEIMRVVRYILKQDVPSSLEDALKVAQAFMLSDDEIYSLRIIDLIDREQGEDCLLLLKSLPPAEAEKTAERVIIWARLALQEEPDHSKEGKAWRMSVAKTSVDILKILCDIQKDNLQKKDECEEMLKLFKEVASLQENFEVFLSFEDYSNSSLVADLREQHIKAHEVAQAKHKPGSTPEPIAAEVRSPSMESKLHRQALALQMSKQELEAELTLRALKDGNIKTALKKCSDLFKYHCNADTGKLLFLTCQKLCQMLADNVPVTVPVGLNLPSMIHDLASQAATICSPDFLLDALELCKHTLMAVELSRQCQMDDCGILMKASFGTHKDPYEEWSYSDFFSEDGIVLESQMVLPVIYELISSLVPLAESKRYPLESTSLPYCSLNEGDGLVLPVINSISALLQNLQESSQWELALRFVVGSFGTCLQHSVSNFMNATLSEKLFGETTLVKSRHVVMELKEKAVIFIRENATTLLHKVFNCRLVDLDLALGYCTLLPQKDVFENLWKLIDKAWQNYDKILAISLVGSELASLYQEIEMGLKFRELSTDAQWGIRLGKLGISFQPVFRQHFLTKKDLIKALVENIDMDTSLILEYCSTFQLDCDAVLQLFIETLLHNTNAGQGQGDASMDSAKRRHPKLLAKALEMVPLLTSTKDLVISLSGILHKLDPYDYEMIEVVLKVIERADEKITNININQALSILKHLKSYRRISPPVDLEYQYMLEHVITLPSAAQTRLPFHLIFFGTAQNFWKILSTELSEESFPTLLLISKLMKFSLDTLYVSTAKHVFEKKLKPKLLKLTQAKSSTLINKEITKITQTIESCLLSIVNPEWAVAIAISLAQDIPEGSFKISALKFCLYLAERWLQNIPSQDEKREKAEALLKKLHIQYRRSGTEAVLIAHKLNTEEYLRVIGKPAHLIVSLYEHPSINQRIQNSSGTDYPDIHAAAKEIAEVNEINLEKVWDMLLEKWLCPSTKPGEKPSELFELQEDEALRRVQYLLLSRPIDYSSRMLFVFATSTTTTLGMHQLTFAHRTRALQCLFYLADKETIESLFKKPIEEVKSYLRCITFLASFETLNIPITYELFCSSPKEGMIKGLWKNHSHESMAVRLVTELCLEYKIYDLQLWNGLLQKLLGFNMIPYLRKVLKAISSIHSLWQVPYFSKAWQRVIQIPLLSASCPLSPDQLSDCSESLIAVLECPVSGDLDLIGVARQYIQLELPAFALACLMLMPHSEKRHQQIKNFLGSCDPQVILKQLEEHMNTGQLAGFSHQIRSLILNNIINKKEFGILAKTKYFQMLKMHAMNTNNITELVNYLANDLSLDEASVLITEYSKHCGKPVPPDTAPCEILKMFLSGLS
R^EEZZ (RZZ with phosphomimetic ROD T13E-S15E), sequence (Q9H900 whole entry, chain 2 of 3): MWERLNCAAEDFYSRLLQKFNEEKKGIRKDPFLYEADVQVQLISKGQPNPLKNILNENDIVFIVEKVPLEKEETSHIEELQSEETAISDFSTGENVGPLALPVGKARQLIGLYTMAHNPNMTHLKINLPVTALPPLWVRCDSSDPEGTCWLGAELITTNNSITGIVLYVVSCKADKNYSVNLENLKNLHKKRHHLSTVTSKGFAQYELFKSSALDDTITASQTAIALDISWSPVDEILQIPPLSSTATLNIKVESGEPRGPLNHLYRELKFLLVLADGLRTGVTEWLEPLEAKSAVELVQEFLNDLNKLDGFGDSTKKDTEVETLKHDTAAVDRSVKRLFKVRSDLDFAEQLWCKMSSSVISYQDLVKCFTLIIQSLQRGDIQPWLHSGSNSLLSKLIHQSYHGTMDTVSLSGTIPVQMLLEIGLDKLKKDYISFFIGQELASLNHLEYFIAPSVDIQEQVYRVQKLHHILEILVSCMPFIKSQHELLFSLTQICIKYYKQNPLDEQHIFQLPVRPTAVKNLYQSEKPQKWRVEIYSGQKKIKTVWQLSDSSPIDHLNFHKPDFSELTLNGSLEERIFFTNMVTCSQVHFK
R^EEZZ (RZZ with phosphomimetic ROD T13E-S15E), sequence (O43264 whole entry, chain 3 of 3): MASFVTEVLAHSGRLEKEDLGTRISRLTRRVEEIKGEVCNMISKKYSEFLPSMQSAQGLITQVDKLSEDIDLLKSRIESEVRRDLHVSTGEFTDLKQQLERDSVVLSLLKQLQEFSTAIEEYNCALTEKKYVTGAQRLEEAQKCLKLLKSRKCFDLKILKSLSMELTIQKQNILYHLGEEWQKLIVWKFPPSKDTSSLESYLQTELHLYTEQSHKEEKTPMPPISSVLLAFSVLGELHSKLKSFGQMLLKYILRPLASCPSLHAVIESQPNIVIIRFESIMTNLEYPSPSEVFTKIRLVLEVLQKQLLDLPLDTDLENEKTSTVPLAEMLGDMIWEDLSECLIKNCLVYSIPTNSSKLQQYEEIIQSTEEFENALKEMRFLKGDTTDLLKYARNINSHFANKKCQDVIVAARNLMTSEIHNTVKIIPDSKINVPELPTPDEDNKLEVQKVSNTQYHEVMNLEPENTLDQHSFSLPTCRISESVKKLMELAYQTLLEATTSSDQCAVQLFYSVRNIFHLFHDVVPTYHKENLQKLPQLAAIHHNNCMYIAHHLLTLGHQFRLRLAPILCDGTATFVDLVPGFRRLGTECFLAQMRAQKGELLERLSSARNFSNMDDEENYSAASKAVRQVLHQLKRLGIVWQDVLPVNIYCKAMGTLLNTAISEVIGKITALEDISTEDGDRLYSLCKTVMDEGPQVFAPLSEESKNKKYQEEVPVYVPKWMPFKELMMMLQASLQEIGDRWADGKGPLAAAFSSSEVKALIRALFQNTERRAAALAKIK

mCherry-RZZ (ROD-Zwilch-ZW10 complex, wild type), sequence (P50748 whole entry, chain 1 of 3): as the sequence (P50748 whole entry T13E/S15E, chain 1 of 3) above, with E13T, E15S counted along it
mCherry-RZZ (ROD-Zwilch-ZW10 complex, wild type), sequence (Q9H900 whole entry, chain 2 of 3): as the sequence (Q9H900 whole entry, chain 2 of 3) above
mCherry-RZZ (ROD-Zwilch-ZW10 complex, wild type), sequence (O43264 whole entry, chain 3 of 3): as the sequence (O43264 whole entry, chain 3 of 3) above

- binding result [1]: binds
- binding result [2]: binds
B1: GST-BUB1^467-521 (domain or fragment, UniProt O43683 467-521, looked up)
chain: ALGFIMNMFQAPTLPDISDDKDEWQSLDQNEDAFEAQFQKNVRSSGAWGVNKIIS

Source: doi:10.1101/2025.06.17.660062 (bioRxiv, 2025)
